Experiment [1] addresses PD-1-hFc (human). In words: BLI, immobilized PD-1-hFc; untreated sample before LRP1 depletion. (In BLI a coated tip is dipped into the sample, and binding shifts an interference pattern.)
For experiment [2], the target named is CTLA-4-hFc. In words: BLI, immobilized CTLA-4-hFc; untreated sample before LRP1 depletion.

The results in this text go back to patent US20240374745A1.

Sequence of CTLA-4-hFc (chain, as listed by the source limits assumed): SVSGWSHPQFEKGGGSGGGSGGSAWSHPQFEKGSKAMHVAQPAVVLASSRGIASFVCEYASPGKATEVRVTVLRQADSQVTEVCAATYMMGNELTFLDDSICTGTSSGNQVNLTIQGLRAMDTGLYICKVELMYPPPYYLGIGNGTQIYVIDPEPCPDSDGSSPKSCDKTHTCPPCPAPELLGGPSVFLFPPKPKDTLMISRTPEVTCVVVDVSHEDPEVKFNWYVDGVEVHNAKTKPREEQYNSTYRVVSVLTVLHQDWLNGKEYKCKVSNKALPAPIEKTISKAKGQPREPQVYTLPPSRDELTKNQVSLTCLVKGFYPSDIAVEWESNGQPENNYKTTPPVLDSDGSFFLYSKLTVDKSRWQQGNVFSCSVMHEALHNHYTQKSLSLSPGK
Sequence of PD-1-hFc (human) (chain, as listed by the source limits assumed): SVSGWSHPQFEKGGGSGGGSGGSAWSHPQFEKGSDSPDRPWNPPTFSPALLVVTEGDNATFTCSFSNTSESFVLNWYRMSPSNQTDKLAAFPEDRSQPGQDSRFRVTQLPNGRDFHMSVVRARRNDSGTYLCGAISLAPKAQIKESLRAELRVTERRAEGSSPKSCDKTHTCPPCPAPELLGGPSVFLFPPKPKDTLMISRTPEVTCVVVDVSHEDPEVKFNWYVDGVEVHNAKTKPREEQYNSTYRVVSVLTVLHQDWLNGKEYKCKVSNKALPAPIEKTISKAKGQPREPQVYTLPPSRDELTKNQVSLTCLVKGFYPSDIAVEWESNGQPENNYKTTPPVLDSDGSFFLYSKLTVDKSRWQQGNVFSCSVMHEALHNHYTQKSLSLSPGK

Regarding “A2M-Nivolumab, untreated (native conformation)”, the percent of the maximum binding defined by thermolysin activation in experiment [1] was determined as 25%.
In turn, “A2M-Ipilimumab, untreated (native conformation)” registered a percent of the maximum binding defined by thermolysin activation in experiment [2] of 25%.
